In article PMC3422339, “Interactions and CCAAT-Binding of Arabidopsis thaliana NF-Y Subunits” (PLoS ONE, 2012):
One block for each binder: values may come before it.

Assays:
Conditions in all cases: both partners purified
[1] = biological target: T1, AtNF-YB2/AtNF-YC3 dimer (recombinant, renatured together) (Arabidopsis thaliana, UniProt Q9FGJ3 1-190; Q9ZVL3 1-217); test: native gel or EMSA; Figure 5A: recombinant AtNF-YB/AtNF-YC dimers with recombinant AtNF-YA6 or recombinant mouse NF-YA; 32P-labelled CCAAT oligonucleotide; NF-Y buffer, 15 min 20°C; 4.5% polyacrylamide; the read-out is the trimer bound to DNA
T1 construct: AtNF-YB2, Arabidopsis thaliana; as the chain of m23; AtNF-YC3, Arabidopsis thaliana; as the chain of m43; source: E. coli, each subunit purified from inclusion bodies, denatured and renatured when mixed together
T1 sequence (looked up) 1: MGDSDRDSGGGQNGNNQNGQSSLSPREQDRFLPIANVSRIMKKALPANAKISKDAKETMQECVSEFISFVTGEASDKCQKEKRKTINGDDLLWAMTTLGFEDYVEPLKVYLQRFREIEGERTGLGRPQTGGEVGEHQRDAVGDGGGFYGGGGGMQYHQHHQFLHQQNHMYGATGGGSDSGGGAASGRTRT
T1 sequence (looked up) 2: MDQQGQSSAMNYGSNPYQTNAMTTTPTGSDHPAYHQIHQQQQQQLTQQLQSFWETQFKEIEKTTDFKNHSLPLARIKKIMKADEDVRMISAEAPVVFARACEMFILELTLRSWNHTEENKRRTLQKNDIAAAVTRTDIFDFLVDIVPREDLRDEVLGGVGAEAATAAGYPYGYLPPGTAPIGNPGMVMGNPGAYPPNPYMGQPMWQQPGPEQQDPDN

[2] = biological target: T2, His-tagged recombinant AtNF-YC7 (Arabidopsis thaliana, UniProt Q9FGP8 1-212); test: co-renaturation of denatured subunits; single His-tagged HFD subunits from E. coli inclusion bodies, denatured and renatured when mixed together
T2 construct: AtNF-YC7, Arabidopsis thaliana; source: E. coli, purified (Nickel-agarose); found in inclusion bodies, denatured and renatured
T2 sequence (looked up): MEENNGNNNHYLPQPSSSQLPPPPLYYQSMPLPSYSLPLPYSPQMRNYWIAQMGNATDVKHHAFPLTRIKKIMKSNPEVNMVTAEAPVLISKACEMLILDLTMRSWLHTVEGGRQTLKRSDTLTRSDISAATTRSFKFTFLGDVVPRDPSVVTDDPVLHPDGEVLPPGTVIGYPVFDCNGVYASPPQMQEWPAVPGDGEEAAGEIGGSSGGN

[3] = biological target: T3, His-tagged recombinant AtNF-YC3 (Arabidopsis thaliana, UniProt Q9ZVL3 1-217); test: as above
T3 construct: AtNF-YC3, Arabidopsis thaliana; source: E. coli, purified (Nickel-agarose); found in inclusion bodies, denatured and renatured
T3 sequence (looked up): T1 sequence (looked up) 2

binding result [1]: binds
B1: recombinant mouse NF-YA (347 residues) (natural protein)
chain: not shown
notes: mouse NF-YA; 347 residues as printed; source: recombinant

binding result [1]: binds
B2: recombinant AtNF-YA6 (His-tagged) (natural protein)
chain: not shown
notes: AtNF-YA6, Arabidopsis thaliana; 308 residues as printed; source: E. coli, purified (Nickel-agarose)

binding result [2]: binds | binding result [3]: binds
B3: His-tagged recombinant AtNF-YB2 (natural protein, Arabidopsis thaliana, UniProt Q9FGJ3 1-190, looked up)
chain: T1 sequence (looked up) 1
notes: AtNF-YB2, Arabidopsis thaliana; also called His-AtNF-YB2; source: E. coli BL21, purified (Nickel-agarose); found in inclusion bodies, denatured and renatured
